Laboratory results: paper PMC6108849, “Heteromeric RNP Assembly at LINEs Controls Lineage-Specific RNA Processing”

Key:
rMATR3 RRMs = target: T1, rMATR3 RRMs (UniProt P43243 362-592); test: UV crosslinking competition; competes with 0.5 uM rPTBP1 at equimolar concentration; 30 C 20 min, 10 fmol RNA, UV crosslink on ice (1920 mJ), RNase A1/T1 digestion, 15% denaturing PAGE; buffer, salt and pH not stated; details: protein: recombinant; (HisTrap purified); label: 32P-UTP
T1 sequence: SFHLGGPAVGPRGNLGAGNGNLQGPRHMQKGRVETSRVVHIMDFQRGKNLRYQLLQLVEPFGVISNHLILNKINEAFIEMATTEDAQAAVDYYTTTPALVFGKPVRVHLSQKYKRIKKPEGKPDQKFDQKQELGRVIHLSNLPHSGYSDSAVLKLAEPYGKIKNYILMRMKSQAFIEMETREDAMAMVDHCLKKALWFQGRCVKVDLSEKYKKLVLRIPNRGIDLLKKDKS

rPTBP1;rMATR3 PRI-RRMs = rPTBP1;rMATR3 PRI-RRMs (human?;human?, UniProt P26599;P43243 1-557;341-592, |); test: UV crosslinking; PTBP1 crosslinking retained at excess rMATR3; heteromeric complex; 30 C 20 min, 10 fmol RNA, UV crosslink on ice (1920 mJ), RNase A1/T1 digestion, 15% denaturing PAGE; buffer, salt and pH not stated; details: protein: recombinant;recombinant; (HisTrap purified); copies: 1;1; label: 32P-UTP
Chain of rPTBP1;rMATR3 PRI-RRMs (P26599 whole entry, one chain of several): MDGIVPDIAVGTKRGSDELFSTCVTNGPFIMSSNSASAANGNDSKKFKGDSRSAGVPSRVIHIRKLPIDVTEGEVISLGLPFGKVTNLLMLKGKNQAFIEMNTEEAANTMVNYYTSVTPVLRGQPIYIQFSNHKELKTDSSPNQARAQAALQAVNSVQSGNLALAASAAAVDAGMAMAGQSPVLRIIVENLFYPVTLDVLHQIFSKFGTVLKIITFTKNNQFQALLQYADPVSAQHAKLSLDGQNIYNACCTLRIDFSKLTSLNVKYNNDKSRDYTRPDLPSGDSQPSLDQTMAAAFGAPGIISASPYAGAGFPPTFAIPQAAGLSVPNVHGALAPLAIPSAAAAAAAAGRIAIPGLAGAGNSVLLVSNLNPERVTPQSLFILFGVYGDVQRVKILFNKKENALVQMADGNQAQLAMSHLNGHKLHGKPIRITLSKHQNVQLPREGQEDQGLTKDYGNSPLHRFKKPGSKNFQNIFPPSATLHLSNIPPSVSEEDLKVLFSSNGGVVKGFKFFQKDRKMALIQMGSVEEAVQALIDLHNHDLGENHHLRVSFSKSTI

B1: ATCTT2 RNA probe (ssRNA)
RNA: GAAUACGAAUUCCAUAUAUGAUCGAUAAAUAUAUGGUACCUUGCUAUCUUACAUCUUUUUACGGAUCCCAUAUAUGAUCGAUAUAUAUAAGCU
- binding result (rMATR3 RRMs): binds
- binding result (rPTBP1;rMATR3 PRI-RRMs): binds
